Measurements as given in patent US20230382948A1, “DELIVERY OF ENDOTHELIAL CELL-LADEN MICROGEL ELICITS ANGIOGENESIS IN SELF-ASSEMBLING ULTRASHORT PEPTIDE HYDROGELS” (KING ABDULLAH UNIVERSITY OF SCIENCE AND TECHNOLOGY, priority 2020, published 2023).

What was measured:
[1] = pH of peptide solutions; assay type: physicochemical; details: for pH of the peptide solution: 5 mg/mL in Milli-Q water; for pH of the peptide solution after the addition of PBS: 5 mg/mL
Procedure: The preweighed (as per the required final concentration) peptide powder was dissolved in 0.9 mL of Milli-Q® water in a glass vial. The solution was vortexed for 5-10 s to obtain a clear and homogeneous solution. To this peptide solution, 0.1 mL of PBS buffer (10×, w/o Ca^2+ and Mg^2+) was added. To ensure a homogeneous distribution of buffer in the solution, the glass vial was further vortexed for 2-3 s. The glass vial was kept undisturbed on the bench, and hydrogel formation was observed using the vial inversion method, as shown in FIG. 9. The pH of the solutions of IVFK (SEQ ID NO. 1) and IVZK (SEQ ID NO. 2) was 5.57 and 5.48 at a 5 mg/mL concentration, respectively. After the addition of PBS, the pH changed to 7.7 and 7.6 for IVFK (SEQ ID NO. 1) and IVZK (SEQ ID NO. 2), respectively. The pH of the Milli-Q® water and phosphate buffer used was 6.7 and 7.4, respectively.

[2] = tested on: endothelial cells (HUVECs); assay: Cell culture on microgels, HUVEC; assay type: cell-based, human; details: first 24 h of culture
Procedure: A 1.2×10^6 amount of cells suspended in 4 mL of complete cell culture media (300,000 cells/mL) was mixed with 200 μL of microgels by pipetting. The mix was seeded at […] in a 24-well low binding plate and kept at 37° C., 95% humidity, and 5% CO2 under rocker conditions at 30 rpm for 24 h. Then, cell-laden microgels were transferred into a tube by pipetting and spun down at 50 g for 5 min. The upper layer, containing cells not adherent to the microgels, was discarded. At this moment, cell-laden microgels were either resuspended with complete cell culture media to continue cell culture under rocker conditions or processed for staining.
The cell-laden microgels were fixed with 4% formaldehyde (v/v) in PBS and incubated for 30 min at 22° C. Later, formaldehyde was removed by centrifugation, and cell-laden microgels were washed twice with PBS in a similar way. Permeabilization buffer (6.3 mM MgCl2, 233.7 mM sucrose, 0.5% (v/v) Triton® X-100 in PBS) was kept at −20° C. and thawed just before use. […]
Proliferative cells were labeled by incubating cell-laden microgels with […] EdU in complete medium for 24 h in rocking culture at 30 rpm. […] EdU was detected following the manufacturer instructions by incubating cell-laden microgels with a Click-iT Plus reaction cocktail for 30 min at 22° C. protected from light. […]

| Substance | pH of the peptide solution [1] | pH of the peptide solution after the addition of PBS [1] | HUVEC cell adhesion and morphology on microgels [2] |
| --- | --- | --- | --- |
| Ac-Ile-Val-Cha-Lys-NH2 (IVXK; HELM PEPTIDE1{[ac].I.V.[Cha].K.[am]}$$$$V2.0; SMILES CC[C@H](C)[C@H](NC(C)=O)C(=O)N[C@H](C(=O)N[C@@H](CC1CCCCC1)C(=O)N[C@@H](CCCCN)C(N)=O)C(C)C) [IVZK, self-assembling ultrashort tetrapeptide, Z = cyclohexylalanine, forms hydrogels and microgels] | 5.48 | 7.6 | cell adhesion and stretched morphology |
| Ac-Ile-Val-Phe-Lys-NH2 (Ac-IVFK-NH2) [self-assembling ultrashort tetrapeptide, forms hydrogels and microgels] | 5.57 | 7.7 | cell adhesion and stretched morphology |
